The Kd is the concentration at which binding is half-saturated. Low values mean a tighter complex, high ones a looser complex. Broadly, the stoichiometry N is a count of units in the complex or per binding partner.

Where a chain is given by its changes, count along the chain named. Names and notes keep the numbering of the source.

In series [1] the target is COA7 (Homo sapiens, UniProt Q96BR5). As to the kind of experiment: biochemical.
Series [2] deals with the molecule itself. As to the kind of experiment: AUC.

In series [1], `C=CC1=C(C)C2=Cc3c(C=C)c(C)c4[n]3[Fe]([Cl])[n]3c(c(C)c(CCC(=O)O)c3=CC3=NC(=C4)C(C)=C3CCC(=O)O)=CC1=N2` [hemin] showed a Kd of 1400 ± 280 nM.

B1: Recombinant human COA7 (natural protein)
chain: MAGMVDFQDEEQVKSFLENMEVECNYHCYHEKDPDGCYRLVDYLEGIRKNFDEAAKVLKFNCEENQHSDSCYKLGAYYVTGKGGLTQDLKAAARCFLMACEKPGKKSIAACHNVGLLAHDGQVNEDGQPDLGKARDYYTRACDGGYTSSCFNLSAMFLQGAPGFPKDMDLACKYSMKACDLGHIWACANASRMYKLGDGVDKDEAKAEVLKNRAQQLHKEQQKGVQPLTFG
As to B1, the “stoichiometry N” value in series [2] amounted to 2.

B2: Recombinant Y137C COA7 (^Y137CCOA7) (natural protein, human)
chain: B1 chain with Y137C
In the case of B2, the “stoichiometry N” value in series [2] came to 2.

(Values after article PMC8892353 (Proceedings of the National Academy of Sciences of the …, 2022).)
